The source of these data is PMC10044410 (Cell, 2023).

As usually defined, the Ki is the dissociation constant of the complex between target and ligand, obtained from inhibition or displacement. The low end stands for tighter binding, the high end for weaker binding.

In experiment [1] the target is GroEL (wild type, recombinant, from pET22b-groL) (E. coli, UniProt P0A6F5 1-548). The experiment can be described thus: SEC.
Experiment [2] has as its target GroEL_(R452A/E461A/S463A/V464A) (E. coli, UniProt P0A6F5 1-548, R452A | E461A | S463A | V464A). Description: SEC. (In general: In gel filtration, larger molecules generally elute earlier.)
Experiment [3] deals with GroEL (untagged, from pET15b, for quantitative binding studies) (E. coli, UniProt P0A6F5 1-548). The experiment can be described thus: other fluorescence titration.

B1: Citrate synthase (CS) from pig hearts, chemically unfolded (enzyme, UniProt P00889 28-464, looked up)
chain: ASSTNLKDILADLIPKEQARIKTFRQQHGNTVVGQITVDMMYGGMRGMKGLVYETSVLDPDEGIRFRGYSIPECQKMLPKAKGGEEPLPEGLFWLLVTGQIPTEEQVSWLSKEWAKRAALPSHVVTMLDNFPTNLHPMSQLSAAITALNSESNFARAYAEGIHRTKYWELIYEDCMDLIAKLPCVAAKIYRNLYREGSSIGAIDSKLDWSHNFTNMLGYTDAQFTELMRLYLTIHSDHEGGNVSAHTSHLVGSALSDPYLSFAAAMNGLAGPLHGLANQEVLVWLTQLQKEVGKDVSDEKLRDYIWNTLNSGRVVPGYGHAVLRKTDPRYTCQREFALKHLPHDPMFKLVAQLYKIVPNVLLEQGKAKNPWPNVDAHSGVLLQYYGMTEMNYYTVLFGVSRALGVLAQLIWSRALGFPLERPKSMSTDGLIKLVDSK
For the molecule B1, the binding result in experiment [1] is “binds”.

B2: CnoX (wild type, recombinant, from pET22b-cnoX) (natural protein, E. coli)
chain: MSVENIVNINESNLQQVLEQSMTTPVLFYFWSERSQHCLQLTPILESLAAQYNGQFILAKLDCDAEQMIAAQFGLRAIPTVYLFQNGQPVDGFQGPQPEEAIRALLDKVLPREEELKAQQAMQLMQESNYTDALPLLKDAWQLSNQNGEIGLLLAETLIALNRSEDAEAVLKTIPLQDQDTRYQGLVAQIELLKQAADTPEIQQLQQQVAENPEDAALATQLALQLHQVGRNEEALELLFGHLRKDLTAADGQTRKTFQEILAALGTGDALASKYRRQLYALLY
For the molecule B2, the binding result in experiment [2] is “binds”.

B3: GroES (for quantitative binding studies, His tag removed) (natural protein, E. coli)
chain: MNIRPLHDRVIVKRKEVETKSAGGIVLTGSAAAKSTRGEVLAVGNGRILENGEVKPLDVKVGDIVIFNDGYGVKSEKIDNEEVLIMSESDILAIVEA
In turn, B3 returned a Ki in experiment [3] of 47 nM.
